Reference: paper PMC6131177

How the values were obtained:
[1] = target: T1, Bacteriorhodopsin (Halobacterium salinarum S9), P02945; experiment: circular dichroism in the visible range; bR in native purple membrane (PM); 700-400 nm, 20 °C; a biphasic signal marks the trimer; conditions: remark: other sources report otherwise
T1 chain: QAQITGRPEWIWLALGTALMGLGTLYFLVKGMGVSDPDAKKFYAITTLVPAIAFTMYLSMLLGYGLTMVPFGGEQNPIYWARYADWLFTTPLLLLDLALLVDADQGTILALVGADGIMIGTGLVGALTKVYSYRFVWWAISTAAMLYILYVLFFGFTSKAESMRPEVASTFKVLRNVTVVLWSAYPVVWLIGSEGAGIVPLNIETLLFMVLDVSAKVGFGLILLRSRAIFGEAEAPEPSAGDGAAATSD

[2] = target: T1, Bacteriorhodopsin (Halobacterium …); experiment: circular dichroism in the visible range; bR in PMND (cE3D1 nanodisc assembled directly from PM), SEC-purified early fractions 1 to 6; 700-400 nm, 20 °C; a biphasic signal marks the trimer; conditions: remark: other sources report otherwise

stoichiometry N [1]: 3
stoichiometry N [2]: 3
B1: Bacteriorhodopsin, P02945 14-262 (natural protein)
chain: T1 chain
modifications: here or on the partner: retinal Schiff base (residue not given); retinal Schiff base (residue not given)
